Legend:
[1] = system: metastatic disease; settings: ^68Ga-labeled agent; cited from earlier work
[2] = system: prostate tumors; settings: newly diagnosed PCa patients; cited from earlier work
[3] = biological target: T1, PSMA (Homo sapiens, UniProt Q04609); assay: NAALADase assay with LNCaP homogenized cell membranes and [N-acetyl aspartyl ^3H-glutamate]; format: binding; settings: LNCaP homogenized cell membranes, read-out: IC50 LNCaP cells
T1 construct: endogenous in cells; host or cells: LNCaP human prostate cancer cells, homogenized cell membranes
T1 sequence (Q04609 whole entry): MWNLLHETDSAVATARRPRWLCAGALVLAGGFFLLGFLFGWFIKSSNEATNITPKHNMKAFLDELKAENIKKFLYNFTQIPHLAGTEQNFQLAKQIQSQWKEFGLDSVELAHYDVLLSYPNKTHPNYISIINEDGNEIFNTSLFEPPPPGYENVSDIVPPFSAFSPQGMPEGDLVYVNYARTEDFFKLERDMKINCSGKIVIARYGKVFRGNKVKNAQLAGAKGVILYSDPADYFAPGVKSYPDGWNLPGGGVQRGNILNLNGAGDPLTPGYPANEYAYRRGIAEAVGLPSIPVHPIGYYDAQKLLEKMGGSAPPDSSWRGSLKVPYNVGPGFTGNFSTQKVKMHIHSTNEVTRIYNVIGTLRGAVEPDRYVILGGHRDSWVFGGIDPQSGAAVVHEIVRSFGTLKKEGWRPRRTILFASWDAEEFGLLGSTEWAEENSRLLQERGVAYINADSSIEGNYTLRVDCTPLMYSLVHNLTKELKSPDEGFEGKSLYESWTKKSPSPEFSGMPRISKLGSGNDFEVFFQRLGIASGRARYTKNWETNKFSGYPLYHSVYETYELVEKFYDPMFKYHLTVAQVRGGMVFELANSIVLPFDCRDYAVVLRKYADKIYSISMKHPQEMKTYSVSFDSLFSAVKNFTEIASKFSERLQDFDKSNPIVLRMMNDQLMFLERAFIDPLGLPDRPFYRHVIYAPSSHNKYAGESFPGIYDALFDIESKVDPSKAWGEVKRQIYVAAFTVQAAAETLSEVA
Protocol: (§1) (NAAG) as the radioligands. […] After incubation, the reaction medium was aspirated and the cells were rinsed three times with cold media. Cell-associated radioactivity was determined using a Packard Riastar gamma counter. […] The enzymatic reaction was stopped by addition of 50 μL of cold sodium phosphate buffer (0.1 M, pH=7.4). […] Scintillation cocktail was added to each fraction and the amount of radioactivity in each was determined by liquid scintillation counting.
(§2) (NAAG) as the radioligands. […] After incubation, the reaction medium was aspirated and the cells were rinsed three times with cold media. Cell-associated radioactivity was determined using a Packard Riastar gamma counter. […] For the PSMA-positive assay, the binding affinity was measured using the N-acetylated-α-linked acidic dipeptidase (NAALADase) assay. […] The enzymatic reaction was stopped by addition of 50 μL of cold sodium phosphate buffer (0.1 M, pH=7.4). […] Columns were pre-equilibrated with 0.2 M HCl prior to loading of the reaction mixture. […] Scintillation cocktail was added to each fraction and the amount of radioactivity in each was determined by liquid scintillation counting.

[4] = in vivo; set-up: species or system CF-1 normal mice; settings: CF-1, mouse, iv, total radioactivity
[5] = biological target: T2, GRPR (Homo sapiens, UniProt P30550); assay: Competitive displacement binding assay in GRPR-positive PC-3 cells with [^125I-(Tyr4)-BBN]; settings: radioligand [^125I-(Tyr4)-BBN], 1 h, 37° C., read-out: IC50 PC3 cells
T2 construct: endogenous in cells; host or cells: PC-3 human prostate cancer cells (intact cells)
T2 sequence (P30550 whole entry): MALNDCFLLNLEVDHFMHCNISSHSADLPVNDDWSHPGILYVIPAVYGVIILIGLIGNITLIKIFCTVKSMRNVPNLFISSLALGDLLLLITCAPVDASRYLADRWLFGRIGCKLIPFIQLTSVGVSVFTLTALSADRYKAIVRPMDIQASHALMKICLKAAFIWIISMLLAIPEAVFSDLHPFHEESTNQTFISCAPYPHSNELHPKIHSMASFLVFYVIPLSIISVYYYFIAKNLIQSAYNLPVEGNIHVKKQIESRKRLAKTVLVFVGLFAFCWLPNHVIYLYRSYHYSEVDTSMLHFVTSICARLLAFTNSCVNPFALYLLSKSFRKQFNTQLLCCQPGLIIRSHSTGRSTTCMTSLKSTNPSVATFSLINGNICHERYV
Protocol: as §1, §2

[6] = in vivo; set-up: species or system ICR-SCID male mice; settings: male, ICR-SCID, mouse, iv, total radioactivity, Pancreas uptake
[7] = in vivo; set-up: species or system ICR-SCID male mice; settings: male, ICR-SCID, mouse, iv, total radioactivity, Brain uptake

IC50 [3] [nM]	Compound	tissue uptake at 1 h ([4]; Bone uptake) [%ID/g]	tissue uptake at 1 h ([4]; Brain uptake) [%ID/g]	tissue uptake at 1 h ([4]; Heart uptake) [%ID/g]	tissue uptake at 1 h ([4]; Kidneys uptake) [%ID/g]	tissue uptake at 1 h ([4]; L. Intestine uptake) [%ID/g]	tissue uptake at 1 h ([4]; Liver uptake) [%ID/g]	tissue uptake at 1 h ([4]; Lung uptake) [%ID/g]	tissue uptake at 1 h ([4]; Muscle uptake) [%ID/g]	tissue uptake at 1 h ([4]; Pancreas uptake) [%ID/g]	tissue uptake at 1 h ([4]; S. Intestine uptake) [%ID/g]	tissue uptake at 1 h ([4]; Spleen uptake) [%ID/g]	tissue uptake at 1 h ([4]; Stomach uptake) [%ID/g]	further results
	DOTA-p-aminomethylaniline-diglycolic acid-DPhe-Gln-Trp-Ala-Val-Gly-His-Leu-NHEt (FQWAVGHL; DOTA-p-aminomethylaniline-diglycolic acid N-term, C-terminal NHEt; (1)..(1) D-phenylalanine; (1)..(1) DOTA-p-aminomethylaniline-diglycolic acid linked to D-Phenylalanine) [SB3]													Metastatic disease detected, fraction of patients [1]: 5/9
	^64Cu-CB-TE2A-AR06													High contrast imaging of prostate tumors, fraction of men [2]: ¾
16 ± 2.79	CC(C)C[C@H](NC(=O)C[C@H](O)[C@H](CC(C)C)NC(=O)[C@H](Cc1c[nH]cn1)NC(=O)CNC(=O)[C@@H](NC(=O)[C@H](C)NC(=O)[C@H](Cc1c[nH]c2ccccc12)NC(=O)[C@H](CCC(N)=O)NC(=O)[C@@H](Cc1ccccc1)NC(=O)CCCCCCCNC(=O)[C@H](CCCCNC(=O)CN1CCN(CC(=O)O)CCN(CC(=O)O)CCN(CC(=O)O)CC1)NC(=O)CCCCCNC(=O)CC[C@H](NC(=O)N[C@@H](CCC(=O)O)C(=O)O)C(=O)O)C(C)C)C(N)=O [[DUPA-6-Ahx-[^natLu-DOTA]-8-Aoc-RM2]] [metal not drawn]													
	CC(C)C[C@H](NC(=O)C[C@H](O)[C@H](CC(C)C)NC(=O)[C@H](Cc1c[nH]cn1)NC(=O)CNC(=O)[C@@H](NC(=O)[C@H](C)NC(=O)[C@H](Cc1c[nH]c2ccccc12)NC(=O)[C@H](CCC(N)=O)NC(=O)[C@@H](Cc1ccccc1)NC(=O)CCCCCNC(=O)[C@H](CCCCNC(=O)CN1CCN(CC(=O)O)CCN(CC(=O)O)CCN(CC(=O)O)CC1)NC(=O)CCCCCNC(=O)CC[C@H](NC(=O)N[C@@H](CCC(=O)O)C(=O)O)C(=O)O)C(C)C)C(N)=O [DUPA-6-Ahx-Lys(^111In-DOTA)-6-Ahx-RM2, metal not drawn]	0.08 ± 0.06	0.03 ± 0.04	0.16 ± 0.22	2.84 ± 0.64	0.14 ± 0.12	0.23 ± 0.14	0.86 ± 0.7	0.07 ± 0.07	0.19 ± 0.19	0.22 ± 0.13	0.12 ± 0.13	0.14 ± 0.11	
13.9 ± 2.53	CC(C)C[C@H](NC(=O)C[C@H](O)[C@H](CC(C)C)NC(=O)[C@H](Cc1c[nH]cn1)NC(=O)CNC(=O)[C@@H](NC(=O)[C@H](C)NC(=O)[C@H](Cc1c[nH]c2ccccc12)NC(=O)[C@H](CCC(N)=O)NC(=O)[C@@H](Cc1ccccc1)NC(=O)CCCCCNC(=O)[C@H](CCCCNC(=O)CN1CCN(CC(=O)O)CCN(CC(=O)O)CCN(CC(=O)O)CC1)NC(=O)CCCCCNC(=O)CC[C@H](NC(=O)N[C@@H](CCC(=O)O)C(=O)O)C(=O)O)C(C)C)C(N)=O [[DUPA-6-Ahx-[^natLu-DOTA]-6-Ahx-RM2]] [metal not drawn]													
	CC(C)C[C@H](NC(=O)C[C@H](O)[C@H](CC(C)C)NC(=O)[C@H](Cc1c[nH]cn1)NC(=O)CNC(=O)[C@@H](NC(=O)[C@H](C)NC(=O)[C@H](Cc1c[nH]c2ccccc12)NC(=O)[C@H](CCC(N)=O)NC(=O)[C@@H](Cc1ccccc1)NC(=O)CCCCNC(=O)[C@H](CCCCNC(=O)CN1CCN(CC(=O)O)CCN(CC(=O)O)CCN(CC(=O)O)CC1)NC(=O)CCCCCNC(=O)CC[C@H](NC(=O)N[C@@H](CCC(=O)O)C(=O)O)C(=O)O)C(C)C)C(N)=O [DUPA-6-Ahx-Lys(^111In-DOTA)-5-Ava-RM2, metal not drawn]	0.09 ± 0.06	0.02 ± 0.01	0.11 ± 0.06	4.92 ± 0.84	0.12 ± 0.05	0.15 ± 0.05	0.68 ± 0.25	0.06 ± 0.04	1.02 ± 0.37	0.26 ± 0.09	0.13 ± 0.05	0.23 ± 0.18	
9.3 ± 2.32	[DUPA-6-Ahx-Lys(M-DOTA)-6-Ahx-RM2]													IC50 [5]: 3.99 ± 1.8 nM
	CC(C)C[C@H](NC(=O)C[C@H](O)[C@H](CC(C)C)NC(=O)[C@H](Cc1c[nH]cn1)NC(=O)CNC(=O)[C@@H](NC(=O)[C@H](C)NC(=O)[C@H](Cc1c[nH]c2ccccc12)NC(=O)[C@H](CCC(N)=O)NC(=O)[C@@H](Cc1ccccc1)NC(=O)CCCCCCCNC(=O)[C@H](CCCCNC(=O)CN1CCN(CC(=O)O)CCN(CC(=O)O)CCN(CC(=O)O)CC1)NC(=O)CCCCCNC(=O)CC[C@H](NC(=O)N[C@@H](CCC(=O)O)C(=O)O)C(=O)O)C(C)C)C(N)=O [DUPA-6-Ahx-Lys(^111In-DOTA)-8-Aoc-RM2, metal not drawn]	0.14 ± 0.04	0.02	0.2 ± 0.14	1.37 ± 0.31	0.49 ± 0.25	0.38 ± 0.04	0.37 ± 0.03	0.1 ± 0.01	5.45 ± 0.47		0.49 ± 0.34	1.73 ± 2.49	tissue uptake at 4 h [6]: 0.58 ± 0.1 %ID/g; tissue uptake at 24 h [7]: 0.01 %ID/g
	CC(C)C[C@H](NC(=O)C[C@H](O)[C@H](CC(C)C)NC(=O)[C@H](Cc1c[nH]cn1)NC(=O)CNC(=O)[C@@H](NC(=O)[C@H](C)NC(=O)[C@H](Cc1c[nH]c2ccccc12)NC(=O)[C@H](CCC(N)=O)NC(=O)[C@@H](Cc1ccccc1)NC(=O)c1ccc(NC(=O)[C@H](CCCCNC(=O)CN2CCN(CC(=O)O)CCN(CC(=O)O)CCN(CC(=O)O)CC2)NC(=O)CCCCCNC(=O)CC[C@H](NC(=O)N[C@@H](CCC(=O)O)C(=O)O)C(=O)O)cc1)C(C)C)C(N)=O [DUPA-6-Ahx-Lys(^111In-DOTA)-AMBA-RM2, metal not drawn]	0.06 ± 0.04	0.02 ± 0.01	0.12 ± 0.05	1.37 ± 0.31	0.09 ± 0.02	0.28 ± 0.04	1.01 ± 1.15	0.08 ± 0.02	0.24 ± 0.06	0.2 ± 0.04	0.15 ± 0.04	0.15 ± 0.06	
